From the nanobody polyreactivity screen of Harvey et al. (2022)

Assay: yeast display, Sf9 membrane polyspecificity reagent, FACS + sequencing; frameworks hold sequencing errors
Method in brief: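 A synthetic nanobody library was expressed on Saccharomyces cerevisiae BJ5465 by galactose induction for 36–48 hours. The library was stained for 1 hour at 4 °C with 10% biotinylated, detergent-solubilized Sf9 membrane reagent and enriched with streptavidin microbeads before FACS. Low and high (top ~1%) gates were set on anti-HA fluorescence for expression and streptavidin fluorescence for reagent binding, and each polyreactivity label reflects the gate of origin.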

Sequence	polyreactivity (PSR sort gate)
QVQLVESGGGLVQAGGSLRLSCAASGRTFVNYAMGWYRQAPWKERELVAAITWSSGRTYYADSVKGRFTISRDNAKNTVYLQMNSLKPEDTAVYYCAAVGRYSGYDYWGQGTQVTVSS	high polyreactivity
QVQLVESGGGLVQAGASLRLSCAASGSTFYYNAMGWYRQAPGKERELVAAISKSSSRTYYADSVKGRFTISRDNAKNTVFLQMNSLKPEDTAGYYCAADAVYYHFDYWGQGTQVTVSS	high polyreactivity
QVQLVESGGGLVQAGGSLRLSCAATGLIIRYYAMGWYRQAPGKEREFVAAITWNGGSTYADSVKGRFTISRDNAKNTVYLQMNSLKPEDTAVYYSAADLSYWDDFDYWGQGTQVTVSS	low polyreactivity
QVQLVESGGGLVQAGGSLRLSCAASGSIFSTYAMGWYRQAHGKERELVAAISRSGGSTYYADSVKGRFTISRDNAKNTVYLQMNSLKPEDTAVYYCAKVGRRQRYDYWGQGTQVTVSS	high polyreactivity
QVHHVESVGGLVQAGGILRLSSAASGRTFDRYAMGWYRQEPGKERELVAAISSGGSTYYADSVKGRFTISRDNAKNTVYLQMNSLKPEDTADYYCNAGKTFDFRDGVGYDHWGQGTQVTVSS	low polyreactivity
QVQLVESGGGLVQAGGRLRLSCAASGRTFRPYAMGWYRQAPGKERELVAAITSGGSTYYADSVKGRFTISRDNAKNTVYFQMNSLKPEDTAVYYCNAKYYYQPPYDYWGQGTQVTVSS	low polyreactivity
QVQLVESGGGLVQAGGSLRLSCAASGGIFGWYAMGWYRQAPGKERELVAAITGGGSTYYADSVKGRFTISRDNAKNTVYLQMNSLKPEDTAVYYCNADYHTEEDYWGHGTQVTVSS	low polyreactivity
QVQLVESGGGLVQAGGSLRLTCAASGSTFGWYAMGWYRQAPGKERELVAAIRSNGGSTYYADSVKGRFTISRDNAKNTVYLHMNSLKPEDTAVYYCAGRGSPSKHHWYDYWGQGTQVNVSS	low polyreactivity
QVQLVESGGGLVQAGGSLRLSCAASGRIFVTYAMGLYRQAPGKERELVAVISWSGGSTYYADSVKGRFTISRDNAKNTVYLQMNSLKPEDTAVYYCARGLRKVRFDYWGQGTQVTVSS	low polyreactivity
QVQLVESGGGLVQAGGSLRLSCAASGFTFRWYAMGWYRQAPGKERELVAAITHSGGSTYYADSVKGRFTISRDNAKNTVYLQMNSLKPEDTAVYYCAAGYIRKYSAFRYNYWGQGTQVTVSS	high polyreactivity
QVQLVESGGGLVQAGGSLRLICAASGSTFYSYTMGWYRPAPGKERELVARISSSGSTNYADSVKGRFTISRYNAKNTVYLQMNSLKPEDTAVYYCNKDWFYRGYDYWGQGTQVTVSS	high polyreactivity
QVQLVESGGGLVQAGGSLRLSCAASGSTFAYYAMGWYRQAPGKEREFVAAISTRGGSTYYADSVKGRFTISRDNAKNTLYLQMNSLKPEDTAVYYCAAGYFNYSWRIRFDYWGQGTQVTVSS	high polyreactivity
QVQLVESGGGLVQAGGSLRLSSAASGSTFRRNAMGWYRQAPGKQRELVAAITWRGTSTYYADSVKGRFTISRDNAKNTVYLQMNSLKPEDTAVDYCAAPWVVRRTAYDYWGQGTQVTVSS	high polyreactivity
QVQLVESGGGLVQAGGSLRLSCAASGLTFYQYTMGWYRQAPGKERELVAAISRRGGSTYYADSVKGRFTISRDNAKNTVYLQMNSLKPEDTAVYYCAARALRYSRDFDYWGQGTQVTVSS	high polyreactivity
QVQLVESGGGLVQAGGSLSLNCAASGFTFLQYPMGWYRQAPGKERELVATISSGGSTYYADSVKGRFTISPDNAKNTVYLQMNSLKPEDTAVYYCADTGYSSCTYYTHEYWGQGTQVTVSS	low polyreactivity
QVQIVESGGGLVQAGGSLRLSCAASGSTSLVNAMGWYRQAPGKESELVAAITRGGNTYYADSVKGRFTISRDNAKNTVYLQMNSLKPEDTAVYYCAADFWRFYYEYDYWGQGTQVTVSS	low polyreactivity

Sequence	polyreactivity (PSR sort gate)
QVQLVESGGGLVQAGGSLRLSCAASGITFVLNALGWYRQAPRKERELVARISWSTGSTYYADSVKGRFTISRDNAKNTVYLQMNSLKPEDTAVYYCAVDYNVQSLYVVVEGEYWGQGTQVTVSS	low polyreactivity
QVQLVESGGGLVQAGGSLRLSCAASGGIFEAYVMGWYRHAPGKERELVAAISFRGGSTYYADSVKGRFTISRDNAKNTVYLQMNSLKPEDTAVYYCAADYRHQGYDYWGQGTQVTVSS	low polyreactivity
QVQLVESGGGLVQAGGSLRLICAASGSTFGAYAMGWYRQAPGKERELVAAISRSGGTTYYADSVKGRFTISRDNSKNTVYLQMNSLKPEDTEVYYCAADWLNSVPYNYWGQGTLVTVSS	low polyreactivity
QVQIVESGRGLVQAGGSLRLSCAPSGFTLGFFAMGWYRQAPGKERELVAAINWRGGSTYYADSVKVRFTISRDNAKNTVYLQMNSLKPEDTAVYYCNRVYRPSRYDYWGQGTQVTVSS	high polyreactivity
QVQLVESGGGLVQAGGSLRLSCAASGRIFYSYARGWYRQAPGKERELVAAITESGGSTNYADSVKGRFTISRDNAKNSVYLQMNSLKPEDSAVYYCNARYKLTFNLYNYRGQGTQVTVSS	low polyreactivity
QVQLVESGGGLVQAGGSLRLSCAASGRIFSRYTMGWYRQAPGKERELVAAISSRGGSTYYADSVKGRFTISRDNAKNTVYLQMNSLKPEDTAVYYCNTPSYSGSSPYDHWGQGTQVTVSS	high polyreactivity
QVQIVESGGGLVQAGGSIRLSCAASGSIFYDNDMGWYRQAPAKERELVAAISWSASDTYYADSVKGRFTISRDNAKNTVYLQMNSLKPEDTAVYYCNAEVYEWYVVYSALDYWGQGTQVTVSS	low polyreactivity
QVQLVESGGGLVHAGGSLRLSCAASGYTFQAYAMGWYRQPPGKERELVAAISFSSGSTYYADSVKGRFTISRDNAKNTVYLQMNSLKPEDTAVYDCATDNWSVNGGYNYWGQGTQVTVSS	low polyreactivity
QVQLVESAGGLVQAGGSLRLSCAASGSTFYTYTMGWYRQAPGKERELVAAISSSGGDTYYADSVKGRFTISRDNAKNTVYLQMNSLKPEDTAVYYCAAAGPYGAVWRNDYWGQGTQVTVSS	low polyreactivity
QVQLVESGGGLVQAGGSLRLICAASGIIFAYYAMGWYRQSPGKERELVAAITWSGGRTYYADSVKGRFTISRDNAKNTVYLQMNSLKPEDTSVYYCAARFTRQMYYWGQGTQVTVSS	high polyreactivity
QVQLVESGGGLVQAGGSLRLSCAASGITFWFNAMGWYRQAPGKERELVAAITSGVDTNYADSVKGRFTISRDNAKNTVYLQMNSLKPEDTAVYYCAAQGGRLKRGRTTSDYWGQGTQVTVSS	low polyreactivity
QVQLVDSGGGLVQAVGSLRLSCAASGGIFVPNAMGWYRQAHGKVRELVAAIYYSGGRTYYADSVKGSFTISRDNAKNTVYLQMNRLKPEDTAVYYCAAEYWFVFHHYNYFGQGTQVTVSS	high polyreactivity
QVQLVESGGGLVQAGGSLRLSCAASGSIFGVNAMGWYRQAPGKERELVASITGGDSTNYADSVKGRFTISRDNAKNTVYLQMNSLKPEDTAGYYCAKDHYYRYEEGDYWGQGTQVTVSS	low polyreactivity
QVQLVESGGGLVQAGGSLRLSCAASGLTFSPYAMGWSRQAPGKERELVATITIGGSTKYADSVKGRFTISRDNAKNTVYLQMNSLKPEDSAVYYCAVRSGYVTRSYEYWGQGTQVTVSS	low polyreactivity
QVQLVESGGGLVQAGGSLRLSCAAYGITFPVNAMGWYRQAPGKERELVAGIYFSGDSTYYADSVKGRFTISRDNAKNTVYLQMKSLKPEDTAVYYCAAEVWAFVYYFEYSTMYYWGHGTQVTVSS	low polyreactivity
QVQLVESGGGLVQAGGSLRLSCAASGFTFYLYAMGWYRQAPGKERELVAAINSGSSTYYADSVKGRFTISRDNAKNTVYLQMNSLNPEDTAVYYCATDTDRTMDYWGQGTQVTVSS	low polyreactivity
